The term stoichiometry N denotes a count of units in the complex or per binding partner.

Data set [1] has as its target T1, four-subunit cytochrome bc1 complex (WT) in SMA nanodiscs (Cereibacter sphaeroides, UniProt Q02761+Q02762).
T1 construct: gene petB; native purification from photosynthetically grown cells, SMA lipid nanodisc, His10 tag on cyt c1, dimer; SIV 124 residues, 79-107 resolved; with Cytochrome c1; Ubiquinol-cytochrome c reductase subunit IV
Kind of data set: cryo-EM structure, […] Å. The format is binding. As to conditions: natively bound, co-purified; Qo site of one cyt b; isoprene tail truncated in model; redox state not determined; H-bond to Rieske His152.

Data set [2] deals with T2, cytochrome b subunit of the Rhodobacter sphaeroides cytochrome bc1 complex (Rhodobacter sphaeroides, UniProt Q02761 1-445).
T2 construct: also called cyt b; source: endogenous, R. sphaeroides grown photosynthetically; SMA-solubilised membranes, purified in native nanodiscs (Ni-NTA, sucrose gradient, SEC)
T2 sequence (looked up): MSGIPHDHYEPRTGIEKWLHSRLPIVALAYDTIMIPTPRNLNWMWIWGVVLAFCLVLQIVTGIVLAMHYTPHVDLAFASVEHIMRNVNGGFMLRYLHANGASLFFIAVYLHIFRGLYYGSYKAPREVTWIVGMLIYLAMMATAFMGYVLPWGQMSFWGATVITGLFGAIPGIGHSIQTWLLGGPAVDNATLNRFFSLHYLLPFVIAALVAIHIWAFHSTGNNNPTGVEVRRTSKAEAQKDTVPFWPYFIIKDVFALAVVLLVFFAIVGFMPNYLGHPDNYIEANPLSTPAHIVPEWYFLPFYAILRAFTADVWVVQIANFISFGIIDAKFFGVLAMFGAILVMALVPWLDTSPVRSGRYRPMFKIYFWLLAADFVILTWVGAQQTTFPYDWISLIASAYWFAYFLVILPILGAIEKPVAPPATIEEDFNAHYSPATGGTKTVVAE
Briefly: cryo-EM structure. The settings on record: both partners purified.

Data set [3] concerns the molecule itself. Kind of data set: cryo-EM structure; purified four-subunit cyt bc1 in SMA native lipid nanodiscs, no inhibitors added, 20 mM Tris-HCl pH 8, 200 mM NaCl; C1 consensus map at 2.9 Å and a focused class at 3.75 Å (FSC 0.5).

Take `COC1=C(OC)C(=O)C(C/C=C(\C)CC/C=C(\C)CC/C=C(\C)CC/C=C(\C)CC/C=C(\C)CC/C=C(\C)CC/C=C(\C)CC/C=C(\C)CC/C=C(\C)CCC=C(C)C)=C(C)C1=O` [U10, ubiquinone-10]: the “cryo-EM structure, 2.9 Å” value in data set [1] is given as “a ubiquinone-10 molecule bound in the Qo site of one of the cyt b subunits”.

B1: Rieske iron-sulfur protein subunit of the Rhodobacter sphaeroides cytochrome bc1 complex (natural protein, UniProt Q02762 1-187, looked up)
chain: MSNAEDHAGTRRDFLYYATAGAGAVATGAAVWPLINQMNPSADVQALASIFVDVSSVEPGVQLTVKFLGKPIFIRRRTEADIELGRSVQLGQLVDTNARNANIDAGAEATDQNRTLDEAGEWLVMWGVCTHLGCVPIGGVSGDFGGWFCPCHGSHYDSAGRIRKGPAPENLPIPLAKFIDETTIQLG
notes: also called Rieske subunit; Rieske ISP; source: endogenous, R. sphaeroides grown photosynthetically; SMA-solubilised membranes, purified in native nanodiscs (Ni-NTA, sucrose gradient, SEC)
Regarding B1, the binding result in data set [2] is “binds”.

B2: four-subunit Rhodobacter sphaeroides cytochrome bc1 complex (one monomer of the dimeric complex: cyt b, cyt c1, Rieske subunit, SIV) (complex)
chain 1: T2 sequence (looked up)
chain 2: AGGGHVEDVPFSFEGPFGTFDQHQLQRGLQVYTEVCAACHGMKFVPIRSLSEPGGPELPEDQVRAYATQFTVTDEETGEDREGKPTDHFPHSALENAADLSLMAKARAGFHGPMGTGISQLFNGIGGPEYIYSVLTGFPEEPPKCAEGHEPDGFYYNRAFQNGSVPDTCKDANGVKTTAGSWIAMPPPLMDDLVEYADGHDASVHAMAEDVSAFLMWAAEPKLMARKQAGFTAVMFLTVLSVLLYLTNKRLWAGVKGKKKTNV
chain 3: B1 chain
chain 4: MFSFIDDIPSFEQIKARVRDDLRKHGWEKRWNDSRLVQKSRELLNDEELKIDPATWIWKRMPSREEVAARRQRDFETVWKYRYRLGGFASGALLALALAGIFSTGNFGGSSDAGNRPSVVYPIE
notes: also called cyt bc1; cyt bc1-nanodisc complex
As for B2, the “stoichiometry N” value in data set [3] is 2.

(Values after article PMC10041115, “Cryo-EM structure of the four-subunit Rhodobacter sphaeroides cytochrome bc1 complex in styrene maleic acid nanodiscs” (Proceedings of the National Academy of Sciences of the …, 2023).)
